Results as given in patent US20230265151A1, “GIP/GLP1 CO-AGONIST COMPOUNDS” (priority 2020, published 2023).
*1 amine or outer side, *2 acyl side, *3 side chain or, on linkers, in order; H or OH if unused. Where no end group is shown, it is not given here. Side-chain parts run from the residue outwards. [ ]: non-standard residue; d: D form. The star is where a group is joined. αMePhe(2-F) = C[C@](N)(Cc1ccccc1F)C(=O)O; γGlu = O=C(O)[C@H](CCC(=O)[*:2])N[*:1]; C14 diacid = O=C(O)CCCCCCCCCCCCC(=O)*; αMeY = C[C@](N)(Cc1ccc(O)cc1)C(=O)O; αMeL = CC(C)C[C@](C)(N)C(=O)O; Orn = NCCC[C@H](N)C(=O)O; AEEA = NCCOCCOCC(=O)O; Aib = CC(C)(N)C(=O)O

Tests used:
Test in all cases: cell-based or functional assay
human GIP receptor [1] = target: T1, human GIP receptor (human, UniProt P48546 22-466)
T1 sequence (looked up): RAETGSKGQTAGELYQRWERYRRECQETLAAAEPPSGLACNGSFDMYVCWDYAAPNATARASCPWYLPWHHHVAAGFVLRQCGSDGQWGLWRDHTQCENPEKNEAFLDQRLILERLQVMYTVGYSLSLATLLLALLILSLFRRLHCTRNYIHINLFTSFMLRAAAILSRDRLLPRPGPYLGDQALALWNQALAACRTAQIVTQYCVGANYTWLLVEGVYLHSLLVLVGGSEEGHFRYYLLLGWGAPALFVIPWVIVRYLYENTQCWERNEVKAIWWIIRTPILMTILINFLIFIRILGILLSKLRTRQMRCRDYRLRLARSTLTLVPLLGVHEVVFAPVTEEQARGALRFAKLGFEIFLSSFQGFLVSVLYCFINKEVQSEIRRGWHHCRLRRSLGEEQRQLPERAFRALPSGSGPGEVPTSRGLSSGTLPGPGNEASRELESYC

human GLP-1 receptor [2] = target: human GLP-1 receptor (human, UniProt P43220 24-463)
human GIP receptor [3] = target: T2, human GIP receptor (human, UniProt P48546 22-466); remark: listed apart in the source
T2 sequence (looked up): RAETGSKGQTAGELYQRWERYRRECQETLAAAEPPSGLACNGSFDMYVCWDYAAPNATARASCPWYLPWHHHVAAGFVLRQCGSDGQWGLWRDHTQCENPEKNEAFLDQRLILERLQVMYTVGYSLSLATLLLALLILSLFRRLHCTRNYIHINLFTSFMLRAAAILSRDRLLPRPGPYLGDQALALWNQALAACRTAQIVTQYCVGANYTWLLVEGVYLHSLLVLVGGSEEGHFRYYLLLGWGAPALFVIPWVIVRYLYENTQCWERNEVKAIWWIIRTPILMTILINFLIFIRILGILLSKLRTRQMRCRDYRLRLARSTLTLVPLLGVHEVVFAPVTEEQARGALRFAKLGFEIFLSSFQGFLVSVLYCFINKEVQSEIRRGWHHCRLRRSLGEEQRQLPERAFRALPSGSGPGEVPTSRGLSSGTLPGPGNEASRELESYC

human glucagon receptor = human glucagon receptor (human, UniProt P47871 26-477)
human GLP-1 receptor [4] = target: human GLP-1 receptor (human, UniProt P43220 24-463); remark: listed apart in the source

B1: Example 400 (peptide)
peptide: Y[Aib]EGT[αMePhe(2-F)]TSDV[Aib]I[αMeL]LD[Orn]IAQ[Aib]EFIK([AEEA-γGlu-C14 diacid])[αMeY]LIK([AEEA-γGlu-C14 diacid])GGPSSGAPPPS-NH2
modifications: N-terminus assumed
SMILES: CC[C@H](C)[C@H](NC(=O)[C@H](CCCN)NC(=O)[C@H](CC(=O)O)NC(=O)[C@H](CC(C)C)NC(=O)[C@](C)(CC(C)C)NC(=O)[C@@H](NC(=O)C(C)(C)NC(=O)[C@@H](NC(=O)[C@H](CC(=O)O)NC(=O)[C@H](CO)NC(=O)[C@@H](NC(=O)[C@](C)(Cc1ccccc1F)NC(=O)[C@@H](NC(=O)CNC(=O)[C@H](CCC(=O)O)NC(=O)C(C)(C)NC(=O)[C@@H](N)Cc1ccc(O)cc1)[C@@H](C)O)[C@@H](C)O)C(C)C)[C@@H](C)CC)C(=O)N[C@@H](C)C(=O)N[C@@H](CCC(N)=O)C(=O)NC(C)(C)C(=O)N[C@@H](CCC(=O)O)C(=O)N[C@@H](Cc1ccccc1)C(=O)N[C@H](C(=O)N[C@@H](CCCCNC(=O)COCCOCCNC(=O)CC[C@H](NC(=O)CCCCCCCCCCCCC(=O)O)C(=O)O)C(=O)N[C@@](C)(Cc1ccc(O)cc1)C(=O)N[C@@H](CC(C)C)C(=O)N[C@H](C(=O)N[C@@H](CCCCNC(=O)COCCOCCNC(=O)CC[C@H](NC(=O)CCCCCCCCCCCCC(=O)O)C(=O)O)C(=O)NCC(=O)NCC(=O)N1CCC[C@H]1C(=O)N[C@@H](CO)C(=O)N[C@@H](CO)C(=O)NCC(=O)N[C@@H](C)C(=O)N1CCC[C@H]1C(=O)N1CCC[C@H]1C(=O)N1CCC[C@H]1C(=O)N[C@@H](CO)C(N)=O)[C@@H](C)CC)[C@@H](C)CC
cAMP EC50 (1.0% HSA) (human GIP receptor [1]): 16.7 nM
cAMP EC50 (1.0% HSA) (human GLP-1 receptor [2]): 107 nM

B2: Example 20 (peptide)
peptide: YXEGTXTSDXSIXLDXIAQXEFIXXLIKGGKSSGAPPPS
modifications: Aib2, αMeF(2F)6, 4Pal10, αMeL13, Orn16, Aib20, D-Glu24, αMeY25, K28 and K31: K(AEEA2-(γ-Glu)-CO-(CH2)12-CO2H), C-terminal NH2
EC50, cAMP (human GIP receptor [3]): 0.00985 nM
Emax, cAMP (human GIP receptor [3]): 98.8%
EC50, cAMP (human glucagon receptor): > 9950 nM
EC50, cAMP (human GLP-1 receptor [4]): 0.552 nM

B3: Example 1 (peptide)
peptide: YXEGTXTSDXSIXLDXKAQXEFIXXLIEGGKSSGAPPPS
modifications: Aib2, αMeF(2F)6, 4Pal10, αMeL13, Orn16, Aib20, D-Glu24, αMeY25, K17 and K31: K(AEEA2-(γ-Glu)-CO-(CH2)12-CO2H), C-terminal NH2
EC50, cAMP (human GIP receptor [3]): 0.0145 nM
Emax, cAMP (human GIP receptor [3]): 90.2%
EC50, cAMP (human glucagon receptor): > 9950 nM
EC50, cAMP (human GLP-1 receptor [4]): 0.925 nM

B4: Example 24 (peptide)
peptide: YXEGTXTSDXSIXLDXKAQXEFIXXLIEGKPSSGAPPPS
modifications: Aib2, αMeF(2F)6, 4Pal10, αMeL13, Orn16, Aib20, D-Glu24, αMeY25, K17 and K30: K(AEEA2-(γ-Glu)-CO-(CH2)14-CH3), C-terminal NH2
EC50, cAMP (human GIP receptor [3]): 0.00266 nM
EC50, cAMP (human glucagon receptor): > 9950 nM
EC50, cAMP (human GLP-1 receptor [4]): 0.0063 nM

B5: Example 464 (peptide)
peptide: YXEGTXTSDXXIXLDXQAQXEFIKXLIKGGPSSGAPPPS
modifications: Y-Aib-EGT-αMeF(2F)-TSD-4Pal-Aib-I-αMeL-LD-Orn-QAQ-Aib-EFIK(2-[2-(2-Amino-ethoxy)-ethoxy]-acetyl)3-(γ-Glu)-(10-(4-carboxyphenoxy)decanoyl)-αMeY-LIK((2-[2-(2-Amino-ethoxy)-ethoxy]-acetyl)3-(γ-Glu)-(10-(4-carboxyphenoxy)decanoyl)GGPSSGAPPPS-NH2)
cAMP EC50 (1.0% HSA) (human GIP receptor [1]): 0.316 nM
cAMP Emax (1.0% HSA) (human GIP receptor [1]): 95.5%
cAMP EC50 (1.0% HSA) (human GLP-1 receptor [2]): 4.48 nM

B6: Example 100 (peptide)
peptide: YXEGTXTSDXGIXLDXKAQXEFIXXLIEGGKSSGAPPPS
modifications: Aib2, αMeF(2F)6, 4Pal10, αMeL13, Orn16, Aib20, D-Glu24, αMeY25, K17 and K31: K(AEEA2-(γ-Glu)-CO-(CH2)12-CO2H), C-terminal NH2
EC50, cAMP (human glucagon receptor): > 9950 nM
EC50, cAMP (human GLP-1 receptor [4]): 11.4 nM
Emax, cAMP (human GLP-1 receptor [4]): 111%

B7: Example 26 (peptide)
peptide: YXEGTXTSDXSIXLDXIAQXEFIXXLIKGGKSSGAPPPS
modifications: Aib2, αMeF(2F)6, 4Pal10, αMeL13, Orn16, Aib20, D-Glu24, αMeY25, K28 and K31: K(AEEA2-(γ-Glu)-CO-(CH2)14-CH3), C-terminal NH2
EC50, cAMP (human GIP receptor [3]): 0.0218 nM
EC50, cAMP (human glucagon receptor): > 9950 nM
EC50, cAMP (human GLP-1 receptor [4]): 0.0711 nM

B8: Example 21 (peptide)
peptide: YXEGTXTSDXSIXLDXKAQXKFIXXLIEGGPSSGAPPPS
modifications: Aib2, αMeF(2F)6, 4Pal10, αMeL13, Orn16, Aib20, D-Glu24, αMeY25, K17 and K21: K(AEEA2-(γ-Glu)-CO-(CH2)14-CH3), C-terminal NH2
EC50, cAMP (human GIP receptor [3]): 0.00347 nM
EC50, cAMP (human glucagon receptor): > 9950 nM
EC50, cAMP (human GLP-1 receptor [4]): 0.00655 nM

B9: Example 23 (peptide)
peptide: YXEGTXTSDXSIXLDXKAQXEFIXXLIKGGPSSGAPPPS
modifications: Aib2, αMeF(2F)6, 4Pal10, αMeL13, Orn16, Aib20, D-Glu24, αMeY25, K17 and K28: K(AEEA2-(γ-Glu)-CO-(CH2)14-CH3), C-terminal NH2
EC50, cAMP (human GIP receptor [3]): 0.00299 nM
EC50, cAMP (human glucagon receptor): > 9950 nM
EC50, cAMP (human GLP-1 receptor [4]): 0.00722 nM

B10: Example 22 (peptide)
peptide: YXEGTXTSDXSIXLDXKAQXEFIKXLIEGGPSSGAPPPS
modifications: Aib2, αMeF(2F)6, 4Pal10, αMeL13, Orn16, Aib20, αMeY25, K17 and K24: K(AEEA2-(γ-Glu)-CO-(CH2)14-CH3), C-terminal NH2
EC50, cAMP (human GIP receptor [3]): 0.00656 nM
EC50, cAMP (human glucagon receptor): > 9950 nM
EC50, cAMP (human GLP-1 receptor [4]): 0.0153 nM

B11: Example 411 (peptide)
peptide: YXEGTXTSDXXIXLDXQAQXEFIKXLIKGGPSSGAPPPS
modifications: Y-Aib-EGT-αMeF(2F)-TSD-4Pal-Aib-I-αMeL-LD-Orn-QAQ-Aib-EFIK((2-[2-(2-Amino-ethoxy)-ethoxy]-acetyl)2-(γ-Glu)-CO-(CH2)12-CO2H)-αMeY-LIK((2-[2-(2-Amino-ethoxy)-ethoxy]-acetyl)2-(γ-Glu)-CO-(CH2)12-CO2H)GGPSSGAPPPS-NH2
cAMP EC50 (1.0% HSA) (human GIP receptor [1]): 1.09 nM
cAMP EC50 (1.0% HSA) (human GLP-1 receptor [2]): 11.4 nM

B12: Example 10 (peptide)
peptide: YXEGTXTSDXSIXLDXKAQXEFIXXLIEGGKSSGAPPPS
modifications: Aib2, αMeF(2F)6, 4Pal10, αMeL13, Orn16, Aib20, D-Glu24, αMeY25, K17 and K31: K(AEEA2-(10-(4-carboxyphenoxy)decanoyl)), C-terminal NH2
EC50, cAMP (human GIP receptor [3]): 0.0106 nM
EC50, cAMP (human glucagon receptor): > 9950 nM
